According to patent publication US20160137730A1 (Novartis, published 2016):
Where a chain is given by its changes, count along the chain named.

B1: NEG0064 (antibody, human IgG1, kappa, V domains shown)
VH: QIQLVQSGAEVKKPGSSVKVSCKVSGYTFTDHTLHWMRQAPGQGLEWMGYIYPRSGSTKYNENFRGRVTITADTSSSTAYMELSSLRSEDTAVYYCVRRLLFLPLDYWGQGTLVTVSS
VL: EIVMTQSPATLSLSPGERATLSCRSSQSLLSSGNQKSYLTWYQQKPGQAPRLLIYWASTRESGIPARFSGSGSGTDFTLTISSLQPEDFAVYYCQNDYSYPFTFGQGTKLEIKR
notes: Humanized anti-P-cadherin antibody derived from a murine hybridoma; also called NEG0064 Naked
B2: NEG0064-MCC-DM1 (antibody, human IgG1, kappa, V domains shown)
VH: B1 VH
VL: B1 VL
modifications: DM1 (maytansinoid) attached through the MCC linker to primary amines of the antibody; sites not given
notes: Antibody drug conjugate in Ab-MCC-DM1 format; also called NEG0064 ADC
B3: NEG0067 (antibody, human IgG1, kappa, V domains shown)
VH: B1 VH with R65K
VL: B1 VL
notes: Humanized anti-P-cadherin antibody derived from a murine hybridoma; also called NEG0067 Naked
B4: NEG0016-MCC-DM1 (antibody, human IgG1, kappa, V domains shown)
VH: B1 VH with V97A
VL: B1 VL
modifications: DM1 (maytansinoid) attached through the MCC linker to primary amines of the antibody; sites not given
notes: Antibody drug conjugate in Ab-MCC-DM1 format; also called NEG0016 ADC
B5: NEG0016 (antibody, human IgG1, kappa, V domains shown)
VH: B1 VH with V97A
VL: B1 VL
notes: Humanized anti-P-cadherin antibody derived from a murine hybridoma; also called NEG0016 Naked
B6: NEG0067-MCC-DM1 (antibody, human IgG1, kappa, V domains shown)
VH: B1 VH with R65K
VL: B1 VL
modifications: DM1 (maytansinoid) attached through the MCC linker to primary amines of the antibody; sites not given
notes: Antibody drug conjugate in Ab-MCC-DM1 format; also called NEG0067 ADC
B7: NEG0012-MCC-DM1 (antibody, human IgG1, kappa, V domains shown)
VH: EVQLVQSGAEVKKPGESLKISCKVSGYTFTDHTIHWMRQMPGKGLEWMGYIYPRSGSINYNEKFKGQVTISADKSSSTAYLQWSSLKASDTAMYYCARRNLFLPMEYWGQGTLVTVSS
VL: DIVMTQTPLSLPVTPGEPASISCRSSQSLLSSGDQKNYLTWYLQKPGQSPQLLIYWASTRESGVPDRFSGSGSGTDFTLKISRVEAEDVGVYYCQNDYRYPLTFGQGTKLEIKR
modifications: DM1 (maytansinoid) attached through the MCC linker to primary amines of the antibody; sites not given
notes: Antibody drug conjugate in Ab-MCC-DM1 format; also called NEG0012 ADC
B8: NEG0012 (antibody, human IgG1, kappa, V domains shown)
VH: B7 VH
VL: B7 VL
notes: Humanized anti-P-cadherin antibody derived from a murine hybridoma; also called NEG0012 Naked
B9: NEG0013-MCC-DM1 (antibody, human IgG1, kappa, V domains shown)
VH: B7 VH
VL: B7 VL with D34N, R99S
modifications: DM1 (maytansinoid) attached through the MCC linker to primary amines of the antibody; sites not given
notes: Antibody drug conjugate in Ab-MCC-DM1 format; also called NEG0013 ADC
B10: NEG0013 (antibody, human IgG1, kappa, V domains shown)
VH: B7 VH
VL: B7 VL with D34N, R99S
notes: Humanized anti-P-cadherin antibody derived from a murine hybridoma; also called NEG0013 Naked
B11: NOV169N31Q-MCC-DM1 (antibody, human IgG1, kappa, V domains shown)
VH: QVQLQQSGPGLVKPSQTLSLTCAISGDSVSSQSAAWNWIRQSPSRGLEWLGRIYYRSKWYNDYALSVKSRITINPDTSKNQFSLQLNSVTPEDTAVYYCARGEGYGREGFAIWGQGTLVTVSS
VL: DIQMTQSPSSLSASVGDRVTITCRASQTISNTLAWYQQKPGKAPKLLIYAASNLQSGVPSRFSGSGSGTDFTLTISSLQPEDFATYYCQQYLSWFTFGQGTKVEIKR
modifications: DM1 (maytansinoid) attached through the MCC linker to primary amines of the antibody; sites not given
notes: MAR 3.7 (one-step process), 3.15 (in situ process), target DAR 3.8; also called NOV169N31Q ADC
B12: NOV169N31Q (antibody, human IgG1, kappa, V domains shown)
VH: B11 VH
VL: B11 VL
notes: N31Q in HCDR1 removes a deamidation site of parental NOV169; also called anti-P-cadherin antibody NOV169N31Q; NOV169N31Q Naked

What was measured:
[1] = molecular target: T1, Human P-cadherin (CDH3) D1-5 (human, UniProt P22223 108-652); assay: SPR Biacore, Ab captured via Protein A, ECD-6xHis analyte, 25C, 1:1 fit
T1 construct: Human CDH3 residues 108-652 with a C-terminal 6xHis tag, made in Tn5 insect cells with baculovirus (NM_001793.4, NP_001784); It may include a secretion signal and vector residues, as the printed cyno constructs do; no cleavage site is stated; also called human pCAD-6xHis; human P-cadherin ECD
T1 sequence (P22223 108-652 limits assumed): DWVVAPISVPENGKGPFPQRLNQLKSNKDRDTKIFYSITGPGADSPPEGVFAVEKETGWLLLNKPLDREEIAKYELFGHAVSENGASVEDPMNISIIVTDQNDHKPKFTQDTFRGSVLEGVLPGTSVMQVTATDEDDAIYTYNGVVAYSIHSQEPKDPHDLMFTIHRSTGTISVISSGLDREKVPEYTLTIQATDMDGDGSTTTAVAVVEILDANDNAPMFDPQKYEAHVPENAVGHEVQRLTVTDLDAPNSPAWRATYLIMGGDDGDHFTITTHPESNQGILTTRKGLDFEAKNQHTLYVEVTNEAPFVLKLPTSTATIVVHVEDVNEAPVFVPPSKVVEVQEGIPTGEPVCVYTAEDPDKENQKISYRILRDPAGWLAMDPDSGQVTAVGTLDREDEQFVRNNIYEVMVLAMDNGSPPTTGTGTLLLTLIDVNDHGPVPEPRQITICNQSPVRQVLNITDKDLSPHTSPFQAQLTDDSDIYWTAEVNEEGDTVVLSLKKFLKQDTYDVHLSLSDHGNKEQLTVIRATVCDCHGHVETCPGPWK
Text: (§1) Briefly, HBS-P⁺ (0.01 M HEPES, pH 7.4, 0.15 M NaCl, 0.05% Surfactant P20) supplemented with 2% Odyssey® blocking buffer (Li-Cor Biosciences, Lincoln, Nebr.) was used as the running buffer for all the experiments on the Biacore® T100 instrument. HBS-P (0.01 M HEPES, pH 7.4, 0.15 M NaCl, 0.005% Surfactant P20) supplemented with 2% Odyssey® blocking buffer was used as the running buffer for all the experiments on the Biacore® 2000 instrument. The immobilization level and analyte interactions were measured by response unit (RU).
(§2) For kinetic measurements, experiments were performed in which the antibodies were captured to the sensor chip surface via the immobilized Protein A and the ability of the P-cadherin proteins to bind in free solution was determined. Briefly, 28 μg/ml of Protein A at pH 4.5 was immobilized on a CM5 sensor chip through amine coupling at flow rate of 10 μl/minute on two flow cells to reach 2300-3300 RUs. 0.01-0.25 μg/ml of test antibodies was then injected at 5 μl/min for 3 minute. […] Subsequently, 6.25-100 nM of P-cadherin ECD was diluted in a 2-fold series and injected at a flow rate of 40 μl/min for 2-4 min over both reference and test flow cells. Table 11 of tested ECDs is listed below. Dissociation of the binding was followed for 5 min. After each injection cycle, the chip surface was regenerated with PBS/6 M Guanidine HCl, pH 7.4 at 100 μl/min for 45 seconds.

[2] = molecular target: T2, Rat P-cadherin (CDH3) D1-5 (rat, UniProt P10287 100-647 (mouse entry)); assay: as above
T2 construct: Rat CDH3 residues 100-647 with a C-terminal 6xHis tag (NM_053938.1, NP_446390); it may include leader and vector residues; also called rat pCAD-6xHis
T2 chain: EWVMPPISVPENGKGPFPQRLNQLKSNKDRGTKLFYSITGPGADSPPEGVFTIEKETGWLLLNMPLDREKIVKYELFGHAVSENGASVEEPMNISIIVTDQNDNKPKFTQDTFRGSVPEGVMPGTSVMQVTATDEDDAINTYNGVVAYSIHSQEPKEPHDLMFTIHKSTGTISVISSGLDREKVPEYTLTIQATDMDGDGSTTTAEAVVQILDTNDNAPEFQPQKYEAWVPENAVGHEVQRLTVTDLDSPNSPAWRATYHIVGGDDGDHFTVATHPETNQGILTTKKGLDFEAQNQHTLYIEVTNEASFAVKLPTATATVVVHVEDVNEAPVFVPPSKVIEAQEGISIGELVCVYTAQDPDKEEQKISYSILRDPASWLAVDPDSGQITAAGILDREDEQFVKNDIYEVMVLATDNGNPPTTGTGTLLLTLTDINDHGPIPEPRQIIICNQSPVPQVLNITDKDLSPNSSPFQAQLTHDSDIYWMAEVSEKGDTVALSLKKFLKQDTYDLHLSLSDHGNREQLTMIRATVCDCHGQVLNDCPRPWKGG
Text: as §1, §2

[3] = molecular target: T1, Human P-cadherin (CDH3) D1-5; assay: SPR Biacore, ADC captured via Protein A, ECD-6xHis analyte, 25C, 1:1 fit
Text: as §1, §2

[4] = molecular target: T2, Rat P-cadherin (CDH3) D1-5; assay: as above
Text: as §1, §2

Human P-cadherin = Human P-cadherin (human, UniProt P22223 108-829); assay: cell-based or functional assay
Chain of Human P-cadherin (P22223 108-829 limits assumed): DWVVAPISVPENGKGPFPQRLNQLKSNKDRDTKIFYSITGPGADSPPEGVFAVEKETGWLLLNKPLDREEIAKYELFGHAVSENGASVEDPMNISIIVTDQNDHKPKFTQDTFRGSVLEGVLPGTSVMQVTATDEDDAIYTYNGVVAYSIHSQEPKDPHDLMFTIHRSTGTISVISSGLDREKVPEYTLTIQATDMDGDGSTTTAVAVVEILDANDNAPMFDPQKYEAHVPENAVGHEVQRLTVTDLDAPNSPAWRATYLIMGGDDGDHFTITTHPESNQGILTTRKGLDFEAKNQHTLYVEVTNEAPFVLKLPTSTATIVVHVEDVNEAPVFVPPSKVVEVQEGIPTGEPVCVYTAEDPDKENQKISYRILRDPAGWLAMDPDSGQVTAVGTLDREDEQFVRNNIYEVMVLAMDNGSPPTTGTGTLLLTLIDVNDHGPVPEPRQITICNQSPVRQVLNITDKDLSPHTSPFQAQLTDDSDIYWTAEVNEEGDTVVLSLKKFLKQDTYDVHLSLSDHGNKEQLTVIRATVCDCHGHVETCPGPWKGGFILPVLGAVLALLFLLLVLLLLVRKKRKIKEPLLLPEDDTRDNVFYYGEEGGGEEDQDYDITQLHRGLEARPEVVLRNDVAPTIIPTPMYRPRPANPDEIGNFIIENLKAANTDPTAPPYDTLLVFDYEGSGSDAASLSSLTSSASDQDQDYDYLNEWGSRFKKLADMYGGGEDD

[5] = molecular target: T3, Cynomolgus Monkey P-cadherin var. 1 (CDH3) D1-5 (cynomolgus monkey); assay: SPR Biacore, ADC captured via Protein A, ECD-6xHis analyte, 25C, 1:1 fit
T3 construct: Cynomolgus CDH3 variant 1 residues 108-654 with a C-terminal 6xHis tag; The printed entry starts with a leader and vector residues; also called Cyno_1 P-cad; cyno1 pCAD-6xHis
T3 sequence (chain, as listed by the source limits assumed): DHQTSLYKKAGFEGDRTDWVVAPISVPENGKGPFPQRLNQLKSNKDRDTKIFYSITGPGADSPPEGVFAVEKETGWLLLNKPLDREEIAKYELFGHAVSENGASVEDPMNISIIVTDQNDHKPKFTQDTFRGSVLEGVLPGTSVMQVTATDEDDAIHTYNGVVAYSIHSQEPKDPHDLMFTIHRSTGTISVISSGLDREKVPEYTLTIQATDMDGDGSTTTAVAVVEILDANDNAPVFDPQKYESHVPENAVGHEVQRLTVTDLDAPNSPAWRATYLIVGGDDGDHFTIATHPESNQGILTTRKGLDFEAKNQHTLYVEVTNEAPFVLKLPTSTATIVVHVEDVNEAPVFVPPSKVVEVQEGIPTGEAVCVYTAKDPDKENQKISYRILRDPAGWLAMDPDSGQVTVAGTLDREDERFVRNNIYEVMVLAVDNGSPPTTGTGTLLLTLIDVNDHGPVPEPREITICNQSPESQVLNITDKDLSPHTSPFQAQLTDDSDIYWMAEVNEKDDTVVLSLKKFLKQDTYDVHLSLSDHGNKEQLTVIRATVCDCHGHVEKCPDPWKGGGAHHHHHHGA
Text: as §1, §2

[6] = molecular target: T4, Cynomolgus Monkey P-cadherin var. 2 (CDH3) D1-5 (cynomolgus monkey); assay: as above
T4 construct: Cynomolgus CDH3 variant 2 residues 108-654 with a C-terminal 6xHis tag; The printed entry starts with a leader and vector residues; also called Cyno_2 P-cad; cyno2 pCAD-6xHis
T4 sequence (chain, as listed by the source limits assumed): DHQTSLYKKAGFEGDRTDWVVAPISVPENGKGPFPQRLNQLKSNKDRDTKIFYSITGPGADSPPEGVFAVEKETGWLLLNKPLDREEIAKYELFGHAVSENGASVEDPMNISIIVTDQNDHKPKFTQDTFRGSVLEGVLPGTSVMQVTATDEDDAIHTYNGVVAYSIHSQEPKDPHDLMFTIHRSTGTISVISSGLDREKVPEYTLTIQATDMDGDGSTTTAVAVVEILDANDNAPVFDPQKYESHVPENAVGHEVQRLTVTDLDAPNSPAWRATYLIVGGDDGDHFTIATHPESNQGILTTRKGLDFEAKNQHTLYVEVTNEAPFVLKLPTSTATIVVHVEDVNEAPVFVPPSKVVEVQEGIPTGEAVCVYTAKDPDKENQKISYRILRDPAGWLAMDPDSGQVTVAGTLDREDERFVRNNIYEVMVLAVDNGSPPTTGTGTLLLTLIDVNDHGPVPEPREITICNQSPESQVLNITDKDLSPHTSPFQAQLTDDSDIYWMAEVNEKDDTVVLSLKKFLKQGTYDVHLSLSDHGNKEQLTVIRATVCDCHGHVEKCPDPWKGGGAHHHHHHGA
Text: as §1, §2

[7] = molecular target: T2, Rat P-cadherin (CDH3) D1-5; assay: SPR Biacore, Ab captured via Protein A, ECD-6xHis analyte

Binder | Kd [1] | Kd [2] | Kd [3] | other results
B1 | 3.66 nM | 8.99 nM | – | –
B2 | – | – | 4.4 nM | Kd [4]: 13.3 nM
B3 | 3.21 nM | 10.3 nM | – | –
B4 | – | – | 54 nM | –
B5 | 60 nM | 60.1 nM | – | –
B6 | – | – | 6 nM | –
B7 | – | – | 31.3 nM | –
B8 | 44.8 nM | – | – | –
B9 | – | – | 36 nM | –
B10 | 37.3 nM | 37 nM | – | –
B11 | – | – | 27 nM | IC50 (nM), CellTiter-Glo proliferation/survival, 5 days, A431 cells (Human P-cadherin): 21.8 nM; IC50 (nM), CellTiter-Glo proliferation/survival, 5 days, BICR6 cells (Human P-cadherin): 9.62 nM; IC50 (nM), CellTiter-Glo proliferation/survival, 5 days, HCC38 cells (Human P-cadherin): 5.29 nM; IC50 (nM), CellTiter-Glo proliferation/survival, 5 days, HCC70 cells (Human P-cadherin): 3.23 nM; IC50 (nM), CellTiter-Glo proliferation/survival, 5 days, HCC1806 cells (Human P-cadherin): 11.4 nM; IC50 (nM), CellTiter-Glo proliferation/survival, 5 days, HCC1954 cells (Human P-cadherin): 2.28 nM; IC50 (nM), CellTiter-Glo proliferation/survival, 5 days, scaBER cells (Human P-cadherin): 4.06 nM; Kd [5]: 27.5 nM; Kd [6]: 47.1 nM
B12 | 33.3 nM | – | – | binding result [7]: no binding (tested: 6.25-100 nM P-cadherin ECD injected)
